Paper PMC3988567

Biological target: ZnF-UBP domain from USP5 (human) (UniProt P45974)
Assay: ITC

Chain of ZnF-UBP domain from USP5 (human) (P45974 163-291): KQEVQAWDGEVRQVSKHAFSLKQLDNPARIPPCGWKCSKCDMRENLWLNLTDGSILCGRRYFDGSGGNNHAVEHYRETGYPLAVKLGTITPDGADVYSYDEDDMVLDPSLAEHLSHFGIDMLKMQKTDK

stoichiometry N: 1
Substance: ubiquitin (from UniProt P0CG48 1-76) (natural protein)
